B1: FGFR2 IIIb-Fc (Fc fusion)
chain: TLEPEDAISSGDDEDDTDGAEDFVSENSNNKRAPYWTNTEKMEKRLHAVPAANTVKFRCPAGGNPMPTMRWLKNGKEFKQEHRIGGYKVRNQHWSLIMESVVPSDKGNYTCVVENEYGSINHTYHLDVVERSPHRPVLQAGLPANASTVVGGDVEFVCKVYSDAQPHIQWIKHVEKNGSKYGPDGLPYLKVLKHSGINSSNAEVLALFNVTEADAGEYICKVSNYIGQANQSAWLTVLPKQQAPGREKEITASPDYLEDKTHTCPPCPAPELLGGPSVFLFPPKPKDTLYITREPEVTCVVVDVSHEDPEVKFNWYVDGVEVHNAKTKPREEQYNSTYRVVSVLTVLHQDWLNGKEYKCKVSNKALPAPIEKTISKAKGQPREPQVYTLPPSREEMTKNQVSLTCLVKGFYPSDIAVEWESNGQPENNYKTTPPVLDSDGSFFLYSKLTVDKSRWQQGNVFSCSVMHEALKFHYTQKSLSLSPGK
notes: also called FGFR2IIIb beta-ECD; FGFR2IIIb-hFc

One assay addresses T1, FGF8b (UniProt P55075-3 23-215).
T1 construct: Coated on ELISA plates; also called ligand protein FGF8b
T1 sequence (looked up): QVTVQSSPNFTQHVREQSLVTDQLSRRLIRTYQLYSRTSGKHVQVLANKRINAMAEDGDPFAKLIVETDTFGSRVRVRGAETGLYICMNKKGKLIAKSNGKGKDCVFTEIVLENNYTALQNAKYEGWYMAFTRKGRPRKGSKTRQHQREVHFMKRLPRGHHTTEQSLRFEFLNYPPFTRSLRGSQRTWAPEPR
Kind of assay: ligand binding ELISA (data not shown).

In assay [1] the target is T2, Flag-FGFR2-IIIc expressed on CHO cells (human, UniProt P21802 22-821).
T2 construct: whole, on cells; also called CHO-FGFR2-IIIc; CHO-IIIc; not shown: Flag-tag at the N-terminus
Kind of assay: cell-based binding assay (cell ELISA) on stable CHO-FGFR2-IIIc cells. A general note: An ELISA detects its analyte on a solid surface through an enzyme-linked reagent.

Assay [2] has as its target T3, Flag-FGFR2-IIIb expressed on CHO cells (human, UniProt P21802 22-821).
T3 construct: whole, on cells; also called CHO-FGFR2-IIIb; FGFR2-IIIb-expressing CHO cells; not shown: Flag-tag at the N-terminus
T3 chain: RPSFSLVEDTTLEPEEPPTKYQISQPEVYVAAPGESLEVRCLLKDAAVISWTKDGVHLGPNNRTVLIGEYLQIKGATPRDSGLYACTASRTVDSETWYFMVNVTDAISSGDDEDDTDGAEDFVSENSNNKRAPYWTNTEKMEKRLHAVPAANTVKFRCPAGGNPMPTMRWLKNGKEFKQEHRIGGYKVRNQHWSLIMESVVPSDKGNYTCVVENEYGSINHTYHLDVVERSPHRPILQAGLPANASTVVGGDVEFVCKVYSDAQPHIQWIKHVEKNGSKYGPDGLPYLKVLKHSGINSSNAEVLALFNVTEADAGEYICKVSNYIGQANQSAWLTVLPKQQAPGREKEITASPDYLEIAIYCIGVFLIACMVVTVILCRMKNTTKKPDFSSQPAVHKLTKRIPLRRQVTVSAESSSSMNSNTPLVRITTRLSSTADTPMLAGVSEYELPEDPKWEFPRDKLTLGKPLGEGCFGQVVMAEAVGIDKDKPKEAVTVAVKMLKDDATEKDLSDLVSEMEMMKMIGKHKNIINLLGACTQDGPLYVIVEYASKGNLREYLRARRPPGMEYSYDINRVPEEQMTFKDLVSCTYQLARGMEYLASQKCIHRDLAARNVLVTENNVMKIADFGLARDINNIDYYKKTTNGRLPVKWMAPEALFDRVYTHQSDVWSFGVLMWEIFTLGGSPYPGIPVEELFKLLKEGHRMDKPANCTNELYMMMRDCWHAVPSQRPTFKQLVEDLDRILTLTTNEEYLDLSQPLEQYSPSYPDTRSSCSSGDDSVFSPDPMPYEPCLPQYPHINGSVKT
Kind of assay: immunocytochemistry on CHO cells.

The target in assay [3] is T4, FGFR2-IIIc (receptor protein of FIG. 52C) (UniProt P21802 152-377, limits assumed). Kind of assay: binding curves of biotinylated antibody on FGF receptors (FIG. 52C), format not told; biotinylated antibody, FIG. 52C receptor panel.
Assay [4] addresses T4, FGFR2-IIIc (receptor protein of FIG. …). Kind of assay: ELISA with biotinylated Atto-HuMab-01; the receptor concentration is varied (x axis: FGFR receptor concentration, nM).
Assay [5] concerns the target T2, Flag-FGFR2-IIIc expressed on CHO cells. Kind of assay: cell-based binding assay on stable CHO-FGFR2-IIIc cells, method of Beatty et al.
For assay [6], the target named is T3, Flag-FGFR2-IIIb expressed on CHO cells. Put plainly: immunocytochemical staining of CHO cells transiently expressing FGFR2IIIb.
Assay [7] addresses T5, human ferritin (Fer) (human, UniProt P02794 2-183; P02792 2-175, Natural ferritin is a 24-subunit shell of H and L chains in a tissue-dependent ratio, with an iron core. The letters carry one copy of each subunit.).
T5 construct: also called Feritin
Kind of assay: phage ELISA on coated protein.

For the assay “FGFR2 IIIb-Fc”, the target named is B1. Put plainly: phage ELISA, plate coated with FGFR2 IIIb Fc fusion (whole extracellular domain).
For assay [8], the target named is T5, human ferritin (Fer). Put plainly: phage ELISA on coated protein. The source holds these as a separate data set.
Another assay concerns the target human ovalbumin (OA) (human). Kind of assay: phage ELISA on coated protein.
In assay [9] the target is T6, 128AA-mFc (128-amino acid loop-3 fragment of FGFR2IIIc fused to mouse Fc) (human).
T6 chain: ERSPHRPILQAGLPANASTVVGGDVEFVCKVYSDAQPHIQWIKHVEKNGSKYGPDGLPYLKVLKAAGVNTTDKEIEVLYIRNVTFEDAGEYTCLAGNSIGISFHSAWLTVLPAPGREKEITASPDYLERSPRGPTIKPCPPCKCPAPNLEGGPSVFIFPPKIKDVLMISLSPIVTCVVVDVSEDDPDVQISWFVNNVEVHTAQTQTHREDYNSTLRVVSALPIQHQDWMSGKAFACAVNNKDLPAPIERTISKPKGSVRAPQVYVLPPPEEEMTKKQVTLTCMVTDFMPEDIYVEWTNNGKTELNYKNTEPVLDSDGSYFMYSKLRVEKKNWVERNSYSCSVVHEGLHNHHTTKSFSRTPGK
Kind of assay: phage ELISA on coated protein.

Three molecules from patent US20130142802A1 (published 2013) can be followed below.

What is called EC50 (read off the curve) is the concentration needed to bring the measured effect to its halfway point. As usually defined, the Kd is the equilibrium constant for the complex coming apart.

Regarding B1, the binding result in the assay with FGF8b is “no binding”.

B2: Atto-HuMab-01 (full-length human IgG1) (antibody, V domains shown)
VH: QVQLVQSGAEVKKPGSSVKVSCKASGGTFSSYAISWVRQAPGQGLEWMGRIIPIFGTANYAQKFQGRVTITADESTSTAYMELNSLRSEDTAVYYCARDRWDWNDAFDIWGQGTMVTVSS
VL: not shown
notes: also called Atto-01
Regarding B2, the 50% effective concentration (EC50 (read off the curve)) in [1] is ~0.4 nM; in assay [4], ~0.2 nM. The binding result in [2] is given as “no binding (tested: 1ug/ml)”. The Kd in assay [3] is ~0.2 nM; in [5] it was 0.7 nM.

B3: human scFv clone 8, phage-displayed (scFv)
scFv: QSVLTQPPSVSAAPGQKVTISCSGSSSNIGNNYVSWYQQLPGTAPKLLIYDNNKRPSGIPDRFSGSKSGTSATLAISGLQSEDEADYYCAAWDDSLNGVVFGGGTKLTVLGSGGSTITSYNVYYTKLSSSGTQVQLVQSGAEVKKPGSSVKVSCKASGGTFSSYAISWVRQAPGQGLEWMGRIIPIFGTANYAQKFQGRVTITADESTSTAYMELNSLRSEDTAVYYCARDRWDWNDAFDIWGQGTMVTVSS
notes: also called scFv-8; Atto-HuMab-08
Turning to B3, the binding result (in [6]; in the assay with human ferritin (Fer) [7]; with FGFR2 IIIb-Fc) was “no binding” each time. The “OD (450 nm)” value came to 0.011 in the assay with human ferritin (Fer) [8], 0.02 in the assay with human ovalbumin (OA) and 0.215 in [9].
